From patent publication US6991790 (Genentech, dated 2006)

Legend:
[1] = biological target: T1, recombinant preparation of soluble MAC-1 (UniProt P11215 17-1104; P05107 23-700); assay: MAC-1 capture ELISA titer over UV concentration; freeze/thaw study, F1, held at 5° C. (control)
[2] = biological target: T1, recombinant preparation of soluble MAC-1; assay: MAC-1 capture ELISA titer over UV concentration; freeze/thaw study, F2, held at 5° C. (control)
[3] = biological target: T1, recombinant preparation of soluble MAC-1; assay: MAC-1 capture ELISA titer over UV concentration; freeze/thaw study, F3, held at 5° C. (control)
[4] = biological target: T1, recombinant preparation of soluble MAC-1; assay: MAC-1 capture ELISA titer over UV concentration; freeze/thaw study, F4, held at 5° C. (control)
[5] = biological target: T1, recombinant preparation of soluble MAC-1; assay: MAC-1 capture ELISA titer over UV concentration; freeze/thaw study, F5, held at 5° C. (control)
[6] = biological target: T1, recombinant preparation of soluble MAC-1; assay: MAC-1 capture ELISA titer over UV concentration; F1 after three freeze/thaw cycles -20° C. to 5° C.
[7] = biological target: T1, recombinant preparation of soluble MAC-1; assay: MAC-1 capture ELISA titer over UV concentration; F1 after three freeze/thaw cycles -70° C. to 5° C.
[8] = biological target: T1, recombinant preparation of soluble MAC-1; assay: MAC-1 capture ELISA titer over UV concentration; F2 after three freeze/thaw cycles -20° C. to 5° C.
[9] = biological target: T1, recombinant preparation of soluble MAC-1; assay: MAC-1 capture ELISA titer over UV concentration; F2 after three freeze/thaw cycles -70° C. to 5° C.
[10] = biological target: T1, recombinant preparation of soluble MAC-1; assay: MAC-1 capture ELISA titer over UV concentration; F3 after three freeze/thaw cycles -20° C. to 5° C.
[11] = biological target: T1, recombinant preparation of soluble MAC-1; assay: MAC-1 capture ELISA titer over UV concentration; F3 after three freeze/thaw cycles -70° C. to 5° C.
[12] = biological target: T1, recombinant preparation of soluble MAC-1; assay: MAC-1 capture ELISA titer over UV concentration; F4 after three freeze/thaw cycles -20° C. to 5° C.
[13] = biological target: T1, recombinant preparation of soluble MAC-1; assay: MAC-1 capture ELISA titer over UV concentration; F4 after three freeze/thaw cycles -70° C. to 5° C.
[14] = biological target: T1, recombinant preparation of soluble MAC-1; assay: MAC-1 capture ELISA titer over UV concentration; F5 after three freeze/thaw cycles -20° C. to 5° C.
[15] = biological target: T1, recombinant preparation of soluble MAC-1; assay: MAC-1 capture ELISA titer over UV concentration; F5 after three freeze/thaw cycles -70° C. to 5° C.

B1: recombinant humanized anti-CD18 antibody (rhuMAb CD18) (antibody, V domains shown)
VH: EVQLVESGGGLVQPGGSLRLSCATSGYTFTEYTMHWMRQAPGKGLEWVAGINPKNGGTSHNQRFMDRFTISVDKSTSTAYMQMNSLRAEDTAVYYCARWRGLNYGFDVRYFDVWGQGTLVTVSS
VL: DIQMTQSPSSLSASVGDRVTITCRASQDINNYLNWYQQKPGKAPKLLIYYTSTLHSGVPSRFSGSGSGTDYTLTISSLQPEDFATYYCQQGNTLPPTFGQGTKVEIKR
notes: Tested as an F(ab')2 of two light and two heavy chains linked by disulfide bonds, made in E. coli; It was humanized from murine muMAb H52; It says the antibody is directed to the CD18 chain of MAC-1; also called anti-CD18 F(ab')2 antibody; humanized H52 antibody
[1]
  Specific Activity (MAC-1/UV): 1.05 ratio (MAC-1/UV)
[2]
  Specific Activity (MAC-1/UV): 1.14 ratio (MAC-1/UV)
[3]
  Specific Activity (MAC-1/UV): 1.1 ratio (MAC-1/UV)
[4]
  Specific Activity (MAC-1/UV): 0.98 ratio (MAC-1/UV)
[5]
  Specific Activity (MAC-1/UV): 1.14 ratio (MAC-1/UV)
[6]
  Specific Activity (MAC-1/UV): 1 ratio (MAC-1/UV)
[7]
  Specific Activity (MAC-1/UV): 1.03 ratio (MAC-1/UV)
[8]
  Specific Activity (MAC-1/UV): 1.2 ratio (MAC-1/UV)
[9]
  Specific Activity (MAC-1/UV): 1.13 ratio (MAC-1/UV)
[10]
  Specific Activity (MAC-1/UV): 1.08 ratio (MAC-1/UV)
[11]
  Specific Activity (MAC-1/UV): 1.1 ratio (MAC-1/UV)
[12]
  Specific Activity (MAC-1/UV): 1.09 ratio (MAC-1/UV)
[13]
  Specific Activity (MAC-1/UV): 1.06 ratio (MAC-1/UV)
[14]
  Specific Activity (MAC-1/UV): 1.09 ratio (MAC-1/UV)
[15]
  Specific Activity (MAC-1/UV): 1.09 ratio (MAC-1/UV)
